Test results: patent US12679878B2, “CRF2 receptor agonists and their use in therapy” (SANOFI, priority 2020, dated 2026)
Starred links: 1 amine or outer side, 2 acyl side, 3 side chain; linkers in the order of their positions; H or OH if unused. Non-standard residues stand in square brackets, D forms with d. Groups on a side chain read outwards from the residue. No end group written: not given here. *: point of attachment. C20 diacid = O=C(O)CCCCCCCCCCCCCCCCCCC(=O)*; C18 diacid = O=C(O)CCCCCCCCCCCCCCCCC(=O)*; γGlu = O=C(O)[C@H](CCC(=O)[*:2])N[*:1]; Palmitoyl = CCCCCCCCCCCCCCCC(=O)*; AEEA = NCCOCCOCC(=O)O; Aib = CC(C)(N)C(=O)O

The binders below were run against human corticotropin-releasing factor 2α (CRF2 α receptor) (human), Q13324 (assay: cell-based or functional assay).
human corticotropin-releasing factor 2α (CRF2 α receptor) (human), Q13324, sequence (Q13324 20-411): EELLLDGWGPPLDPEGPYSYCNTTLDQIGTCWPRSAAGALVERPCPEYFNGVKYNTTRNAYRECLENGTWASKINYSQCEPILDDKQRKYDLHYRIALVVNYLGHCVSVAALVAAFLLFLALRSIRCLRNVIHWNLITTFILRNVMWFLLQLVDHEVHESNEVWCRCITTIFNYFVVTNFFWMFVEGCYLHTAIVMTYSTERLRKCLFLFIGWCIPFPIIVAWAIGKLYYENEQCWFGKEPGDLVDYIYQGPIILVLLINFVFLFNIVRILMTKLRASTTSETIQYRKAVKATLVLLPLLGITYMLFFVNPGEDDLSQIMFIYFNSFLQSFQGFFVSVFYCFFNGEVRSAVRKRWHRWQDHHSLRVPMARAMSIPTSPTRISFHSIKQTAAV

Binder | EC50 [nM], 0% HSA [nM] | EC50 [nM], 0.1% HSA [nM]
IVLSLDVPTKLK([AEEA-AEEA-γGlu-C18 diacid])QILLKQERQKK[Aib]REQAETNVRILERV-NH2 (N-terminus assumed; SMILES CC[C@H](C)[C@H](N)C(=O)N[C@H](C(=O)N[C@@H](CC(C)C)C(=O)N[C@@H](CO)C(=O)N[C@@H](CC(C)C)C(=O)N[C@@H](CC(=O)O)C(=O)N[C@H](C(=O)N1CCC[C@H]1C(=O)N[C@H](C(=O)N[C@@H](CCCCN)C(=O)N[C@@H](CC(C)C)C(=O)N[C@@H](CCCCNC(=O)COCCOCCNC(=O)COCCOCCNC(=O)CC[C@H](NC(=O)CCCCCCCCCCCCCCCCC(=O)O)C(=O)O)C(=O)N[C@@H](CCC(N)=O)C(=O)N[C@H](C(=O)N[C@@H](CC(C)C)C(=O)N[C@@H](CC(C)C)C(=O)N[C@@H](CCCCN)C(=O)N[C@@H](CCC(N)=O)C(=O)N[C@@H](CCC(=O)O)C(=O)N[C@@H](CCCNC(=N)N)C(=O)N[C@@H](CCC(N)=O)C(=O)N[C@@H](CCCCN)C(=O)N[C@@H](CCCCN)C(=O)NC(C)(C)C(=O)N[C@@H](CCCNC(=N)N)C(=O)N[C@@H](CCC(=O)O)C(=O)N[C@@H](CCC(N)=O)C(=O)N[C@@H](C)C(=O)N[C@@H](CCC(=O)O)C(=O)N[C@H](C(=O)N[C@@H](CC(N)=O)C(=O)N[C@H](C(=O)N[C@@H](CCCNC(=N)N)C(=O)N[C@H](C(=O)N[C@@H](CC(C)C)C(=O)N[C@@H](CCC(=O)O)C(=O)N[C@@H](CCCNC(=N)N)C(=O)N[C@H](C(N)=O)C(C)C)[C@@H](C)CC)C(C)C)[C@@H](C)O)[C@@H](C)CC)[C@@H](C)O)C(C)C)C(C)C) [SEQ ID NO: 82] | 10.1 | –
IVLSLDVPTKLK([AEEA-AEEA-γGlu-C18 diacid])QILLEQERQKKQREQAETN[Aib]QILAQV-NH2 (N-terminus assumed; SMILES CC[C@H](C)[C@H](N)C(=O)N[C@H](C(=O)N[C@@H](CC(C)C)C(=O)N[C@@H](CO)C(=O)N[C@@H](CC(C)C)C(=O)N[C@@H](CC(=O)O)C(=O)N[C@H](C(=O)N1CCC[C@H]1C(=O)N[C@H](C(=O)N[C@@H](CCCCN)C(=O)N[C@@H](CC(C)C)C(=O)N[C@@H](CCCCNC(=O)COCCOCCNC(=O)COCCOCCNC(=O)CC[C@H](NC(=O)CCCCCCCCCCCCCCCCC(=O)O)C(=O)O)C(=O)N[C@@H](CCC(N)=O)C(=O)N[C@H](C(=O)N[C@@H](CC(C)C)C(=O)N[C@@H](CC(C)C)C(=O)N[C@@H](CCC(=O)O)C(=O)N[C@@H](CCC(N)=O)C(=O)N[C@@H](CCC(=O)O)C(=O)N[C@@H](CCCNC(=N)N)C(=O)N[C@@H](CCC(N)=O)C(=O)N[C@@H](CCCCN)C(=O)N[C@@H](CCCCN)C(=O)N[C@@H](CCC(N)=O)C(=O)N[C@@H](CCCNC(=N)N)C(=O)N[C@@H](CCC(=O)O)C(=O)N[C@@H](CCC(N)=O)C(=O)N[C@@H](C)C(=O)N[C@@H](CCC(=O)O)C(=O)N[C@H](C(=O)N[C@@H](CC(N)=O)C(=O)NC(C)(C)C(=O)N[C@@H](CCC(N)=O)C(=O)N[C@H](C(=O)N[C@@H](CC(C)C)C(=O)N[C@@H](C)C(=O)N[C@@H](CCC(N)=O)C(=O)N[C@H](C(N)=O)C(C)C)[C@@H](C)CC)[C@@H](C)O)[C@@H](C)CC)[C@@H](C)O)C(C)C)C(C)C) [SEQ ID NO: 78] | 10.6 | –
IVLSLDVPIKLK([AEEA-AEEA-γGlu-C18 diacid])QILLEQEKQK[Aib]QREQAETNKQILAQV-NH2 (N-terminus assumed; SMILES CC[C@H](C)[C@H](N)C(=O)N[C@H](C(=O)N[C@@H](CC(C)C)C(=O)N[C@@H](CO)C(=O)N[C@@H](CC(C)C)C(=O)N[C@@H](CC(=O)O)C(=O)N[C@H](C(=O)N1CCC[C@H]1C(=O)N[C@H](C(=O)N[C@@H](CCCCN)C(=O)N[C@@H](CC(C)C)C(=O)N[C@@H](CCCCNC(=O)COCCOCCNC(=O)COCCOCCNC(=O)CC[C@H](NC(=O)CCCCCCCCCCCCCCCCC(=O)O)C(=O)O)C(=O)N[C@@H](CCC(N)=O)C(=O)N[C@H](C(=O)N[C@@H](CC(C)C)C(=O)N[C@@H](CC(C)C)C(=O)N[C@@H](CCC(=O)O)C(=O)N[C@@H](CCC(N)=O)C(=O)N[C@@H](CCC(=O)O)C(=O)N[C@@H](CCCCN)C(=O)N[C@@H](CCC(N)=O)C(=O)N[C@@H](CCCCN)C(=O)NC(C)(C)C(=O)N[C@@H](CCC(N)=O)C(=O)N[C@@H](CCCNC(=N)N)C(=O)N[C@@H](CCC(=O)O)C(=O)N[C@@H](CCC(N)=O)C(=O)N[C@@H](C)C(=O)N[C@@H](CCC(=O)O)C(=O)N[C@H](C(=O)N[C@@H](CC(N)=O)C(=O)N[C@@H](CCCCN)C(=O)N[C@@H](CCC(N)=O)C(=O)N[C@H](C(=O)N[C@@H](CC(C)C)C(=O)N[C@@H](C)C(=O)N[C@@H](CCC(N)=O)C(=O)N[C@H](C(N)=O)C(C)C)[C@@H](C)CC)[C@@H](C)O)[C@@H](C)CC)[C@@H](C)CC)C(C)C)C(C)C) [SEQ ID NO: 79] | 0.46 | –
IVLSLDVPTKLK([AEEA-AEEA-γGlu-C20 diacid])QILLEQERQKKQREQAETN[Aib]QILAQV-NH2 (N-terminus assumed; SMILES CC[C@H](C)[C@H](N)C(=O)N[C@H](C(=O)N[C@@H](CC(C)C)C(=O)N[C@@H](CO)C(=O)N[C@@H](CC(C)C)C(=O)N[C@@H](CC(=O)O)C(=O)N[C@H](C(=O)N1CCC[C@H]1C(=O)N[C@H](C(=O)N[C@@H](CCCCN)C(=O)N[C@@H](CC(C)C)C(=O)N[C@@H](CCCCNC(=O)COCCOCCNC(=O)COCCOCCNC(=O)CC[C@H](NC(=O)CCCCCCCCCCCCCCCCCCC(=O)O)C(=O)O)C(=O)N[C@@H](CCC(N)=O)C(=O)N[C@H](C(=O)N[C@@H](CC(C)C)C(=O)N[C@@H](CC(C)C)C(=O)N[C@@H](CCC(=O)O)C(=O)N[C@@H](CCC(N)=O)C(=O)N[C@@H](CCC(=O)O)C(=O)N[C@@H](CCCNC(=N)N)C(=O)N[C@@H](CCC(N)=O)C(=O)N[C@@H](CCCCN)C(=O)N[C@@H](CCCCN)C(=O)N[C@@H](CCC(N)=O)C(=O)N[C@@H](CCCNC(=N)N)C(=O)N[C@@H](CCC(=O)O)C(=O)N[C@@H](CCC(N)=O)C(=O)N[C@@H](C)C(=O)N[C@@H](CCC(=O)O)C(=O)N[C@H](C(=O)N[C@@H](CC(N)=O)C(=O)NC(C)(C)C(=O)N[C@@H](CCC(N)=O)C(=O)N[C@H](C(=O)N[C@@H](CC(C)C)C(=O)N[C@@H](C)C(=O)N[C@@H](CCC(N)=O)C(=O)N[C@H](C(N)=O)C(C)C)[C@@H](C)CC)[C@@H](C)O)[C@@H](C)CC)[C@@H](C)O)C(C)C)C(C)C) [SEQ ID NO: 80] | 0.9 | 92.5
IVLSLDVPIKLK([AEEA-AEEA-γGlu-C20 diacid])QILLEQEKQK[Aib]QREQAETNKQILAQV-NH2 (N-terminus assumed; SMILES CC[C@H](C)[C@H](N)C(=O)N[C@H](C(=O)N[C@@H](CC(C)C)C(=O)N[C@@H](CO)C(=O)N[C@@H](CC(C)C)C(=O)N[C@@H](CC(=O)O)C(=O)N[C@H](C(=O)N1CCC[C@H]1C(=O)N[C@H](C(=O)N[C@@H](CCCCN)C(=O)N[C@@H](CC(C)C)C(=O)N[C@@H](CCCCNC(=O)COCCOCCNC(=O)COCCOCCNC(=O)CC[C@H](NC(=O)CCCCCCCCCCCCCCCCCCC(=O)O)C(=O)O)C(=O)N[C@@H](CCC(N)=O)C(=O)N[C@H](C(=O)N[C@@H](CC(C)C)C(=O)N[C@@H](CC(C)C)C(=O)N[C@@H](CCC(=O)O)C(=O)N[C@@H](CCC(N)=O)C(=O)N[C@@H](CCC(=O)O)C(=O)N[C@@H](CCCCN)C(=O)N[C@@H](CCC(N)=O)C(=O)N[C@@H](CCCCN)C(=O)NC(C)(C)C(=O)N[C@@H](CCC(N)=O)C(=O)N[C@@H](CCCNC(=N)N)C(=O)N[C@@H](CCC(=O)O)C(=O)N[C@@H](CCC(N)=O)C(=O)N[C@@H](C)C(=O)N[C@@H](CCC(=O)O)C(=O)N[C@H](C(=O)N[C@@H](CC(N)=O)C(=O)N[C@@H](CCCCN)C(=O)N[C@@H](CCC(N)=O)C(=O)N[C@H](C(=O)N[C@@H](CC(C)C)C(=O)N[C@@H](C)C(=O)N[C@@H](CCC(N)=O)C(=O)N[C@H](C(N)=O)C(C)C)[C@@H](C)CC)[C@@H](C)O)[C@@H](C)CC)[C@@H](C)CC)C(C)C)C(C)C) [SEQ ID NO: 81] | 0.14 | 18.5
IVLSLDVPIGLK([γGlu-Palmitoyl])QKLLKQQRQRKERQQAETNARILARV-NH2 (N-terminus assumed; SMILES CCCCCCCCCCCCCCCC(=O)N[C@@H](CCC(=O)NCCCC[C@H](NC(=O)[C@H](CC(C)C)NC(=O)CNC(=O)[C@@H](NC(=O)[C@@H]1CCCN1C(=O)[C@@H](NC(=O)[C@H](CC(=O)O)NC(=O)[C@H](CC(C)C)NC(=O)[C@H](CO)NC(=O)[C@H](CC(C)C)NC(=O)[C@@H](NC(=O)[C@@H](N)[C@@H](C)CC)C(C)C)C(C)C)[C@@H](C)CC)C(=O)N[C@@H](CCC(N)=O)C(=O)N[C@@H](CCCCN)C(=O)N[C@@H](CC(C)C)C(=O)N[C@@H](CC(C)C)C(=O)N[C@@H](CCCCN)C(=O)N[C@@H](CCC(N)=O)C(=O)N[C@@H](CCC(N)=O)C(=O)N[C@@H](CCCNC(=N)N)C(=O)N[C@@H](CCC(N)=O)C(=O)N[C@@H](CCCNC(=N)N)C(=O)N[C@@H](CCCCN)C(=O)N[C@@H](CCC(=O)O)C(=O)N[C@@H](CCCNC(=N)N)C(=O)N[C@@H](CCC(N)=O)C(=O)N[C@@H](CCC(N)=O)C(=O)N[C@@H](C)C(=O)N[C@@H](CCC(=O)O)C(=O)N[C@H](C(=O)N[C@@H](CC(N)=O)C(=O)N[C@@H](C)C(=O)N[C@@H](CCCNC(=N)N)C(=O)N[C@H](C(=O)N[C@@H](CC(C)C)C(=O)N[C@@H](C)C(=O)N[C@@H](CCCNC(=N)N)C(=O)N[C@H](C(N)=O)C(C)C)[C@@H](C)CC)[C@@H](C)O)C(=O)O) [SEQ ID NO: 5] | 0.04 | –
